Reference: publication PMC6160459, “Identification of Peptide Mimotope Ligands for Natalizumab” (Scientific Reports, 2018)
Blank lines part the entries; values can stand above or below the binder they belong to.

Assays:
[1] = target: Natalizumab; test: peptide array variant scan, natalizumab binding in arbitrary ELISA units; conditions: chain shown with the change;, read off a plot
[2] = target: Ntz-07 synthetic peptide; test: BLI; Octet Red96; 10 µg/ml peptide immobilised on a streptavidin sensor; natalizumab in solution 1-600 nM, three-fold dilutions; TBS; apparent affinity
[3] = target: Ntz-04 synthetic peptide; test: as above
[4] = target: Ntz-02 synthetic peptide; test: as above
[5] = target: Ntz-03 synthetic peptide; test: as above
[6] = target: Ntz-05 synthetic peptide; test: as above
[7] = target: Ntz-01 synthetic peptide; test: as above
[8] = target: Ntz-06 synthetic peptide; test: as above
[9] = target: Ntz-07 synthetic peptide; test: ELISA; Protocol-2: biotinylated peptide at 1 µg/ml in TBS on streptavidin-coated wells; natalizumab in 2.5% BSA/1X casein/TBST (or diluted human serum) 1 h at RT; detected with anti-IgG4-HRP; apparent affinity
[10] = target: Ntz-06 synthetic peptide; test: as above

B1: Ntz-03 parent peptide on the Pepscan array N7S (peptide)
chain: ACPKNPSKFC
- response ([1]; parent: est. 60): 2300 mAU

B3: Ntz-01 parent peptide on the Pepscan array E6P (peptide)
chain: ACPMNPSKFC
- response ([1]; parent: est. 1100): 1500 mAU

B4: Ntz-02 parent peptide on the Pepscan array S4K (peptide)
chain: ACPKNPSKFC
- response ([1]; parent: est. 80): 1900 mAU

Other lines, results leading:

- Kd [2]: 3.24 nM
- Kd [3]: 6.03 nM
- Kd [4]: 32.1 nM
- Kd [5]: 31.4 nM
- Kd [6]: 10.5 nM
- Kd [7]: 29.1 nM
- Kd [8]: 6.87 nM
- fold improvement of apparent affinity over Ntz-02 [9]: 6.2 fold
- fold improvement of apparent affinity over Ntz-03 [9]: 14 fold
- fold improvement of apparent affinity over Ntz-01 [10]: 1.7 fold
B2: Natalizumab (antibody, V domains shown)
VH: QVQLVQSGAEVKKPGASVKVSCKASGFNIKDTYIHWVRQAPGQRLEWMGRIDPANGYTKYDPKFQGRVTITADTSASTAYMELSSLRSEDTAVYYCAREGYYGNYGVYAMDYWGQGTLVTVSS
VL: DIQMTQSPSSLSASVGDRVTITCKTSQDINKYMAWYQQTPGKAPRLLIHYTSALQPGIPSRFSGSGSGRDYTFTISSLQPEDIATYYCLQYDNLWTFGQGTKVEIK

- response ([1]; parent: est. 80): 1000 mAU
B5: Ntz-02 parent peptide on the Pepscan array S4Q (peptide)
chain: ACPQNPSKFC

- response ([1]; parent: est. 1100): 2400 mAU
B6: Ntz-01 parent peptide on the Pepscan array H4R (peptide)
chain: ACPRNESKFC
